# From patent US20100247549A1
# Where “and” joins values, the source holds several entries; their conditions need not be identical. Equal entries are not always repeated.
# Target: DENV-4 parental viruses
# Experiment: cell-based or functional assay
binder,measurement,value
"Humanized IgG 5H2 ΔD (IgG1 5H2 with a 9-amino-acid deletion, positions 231-239, at the N-terminus of the CH2 domain) (antibody) heavy: EVQLLESGPGLVKPSETLSLTCTVSGGSISDFYWSWLRQSPGKGLEWIGYAHSRVSAYYNPSLKSRVTISVDTSKNQLSLRLSAVTAADTALYYCARQGTGTTGVSEDFFDLWGQGTKVIVSLASTKGPSVFPLAPSSKSTSGGTAALGCLVKDYFPEPVTVSWNSGALTSGVHTFPAVLQSSGLYSLSSVVTVPSSSLGTQTYICNVDHKPSNTKVDKKVEPKSCDKTHTCPPCPVFLFPPKPKDTLMISRTPEVTCVVVDVSHEDPEVKFNWYVDGVEVHNAKTKPREEQYNSTYRVVSVLTVLHQDWLNGKEYKCKVSNKALPAPIEKTISKAKGQPREPQVYTLPPSRDELTKNQVSLTCLVKGFYPSDIAVEWESNGQPENNYKTTPPVLDSDGSFFLYSKLTVDKSRWQQGNVFSCSVMHEALHNHYTQKSLSLSPGK light: not shown",PRNT50 titer,0.03 µg/mL and 0.05 µg/mL
